These results are taken from PMC6050537, “Inhibition of low-density lipoprotein receptor degradation with a cyclic peptide that disrupts the homodimerization of IDOL E3 ubiquitin ligase” (Chemical Science, 2018).

The target of assay [1] is Full length IDOL (1–445) (UniProt Q8WY64). The assay can be described thus: MST; as a6 but in the presence of RINGpep2 (100 μM); apparent; homodimer to monomers.
The target is the same in assay [2]. The assay can be described thus: MST; increasing concentrations of unlabelled IDOL titrated into a 45 nM solution of dye-labelled IDOL; homodimer to monomers.

Broadly, the Kd is the constant that tells how readily two partners part at equilibrium. Lower therefore signals a tighter complex.

Turning to “Full length IDOL (1–445) (from UniProt Q8WY64 1-445) (enzyme)”, the apparent KD in the presence of RINGPep2 (100 μM) with Full length IDOL (1–445) [1] is 11.1 µM. For the same substance, the Kd with Full length IDOL (1–445) [2] was determined as 2.9 µM.
